From patent publication US20230035659A1, “Compositions and Methods for TTR Gene Editing and Treating ATTR Amyloidosis Comprising a Corticosteroid or Use Thereof” (Intellia Therapeutics, Inc., priority 2019, published 2023)
Strand notation (5' to 3'): a small letter for the sugar, then the base; units joined by * are phosphorothioate-linked, units joined directly phosphodiester-linked; [ ] holds rarer units or linkages, { } end groups; capitals alone tell only the bases. m = 2'-O-methyl; r = 2'-OH (RNA)

What was measured:
TTR [1] = test: TTR editing dose response (EC50, maximum editing) in primary cyno hepatocytes treated with LNP formulated U-depleted Spy Cas9 mRNA and sgRNAs; assay type: cell-based, cynomolgus monkey
Experimental: (§1) Primary liver hepatocytes. Primary human liver hepatocytes (PHH) and primary cynomolgus liver hepatocytes (PCH) (Gibco) were cultured per the manufacturer's protocol (Invitrogen, protocol 11.28.2012). In brief, the cells were thawed and resuspended in hepatocyte thawing medium with supplements (Gibco, Cat. CM7000) followed by centrifugation at 100 g for 10 minutes for human and 80 g for 4 minutes for cyno. The supernatant was discarded and the pelleted cells resuspended in hepatocyte plating medium plus supplement pack (Invitrogen, Cat. A1217601 and CM3000). Cells were counted and plated on Bio-coat collagen I coated 96-well plates (ThermoFisher, Cat. 877272) at a density of 33,000 cells/well for human or 60,000 cells/well for cyno (or 65,000 cells/well when assaying effects on TTR protein, described further below). Plated cells were allowed to settle and adhere for 6 or 24 hours in a tissue culture incubator at 37° C. and 5% CO2 atmosphere. After incubation cells were checked for monolayer formation and media was replaced with hepatocyte culture medium with serum-free supplement pack (Invitrogen, Cat. A1217601 and CM4000).
(§2) For LNPs prepared using the cross-flow technique, the LNPs were formed by impinging jet mixing of the lipid in ethanol with two volumes of RNA solutions and one volume of water. The lipid in ethanol is mixed through a mixing cross with the two volumes of RNA solution. A fourth stream of water is mixed with the outlet stream of the cross through an inline tee. (See WO2016010840 FIG. 2.) The LNPs were held for 1 hour at room temperature, and further diluted with water (approximately 1:1 v/v). Diluted LNPs were concentrated using tangential flow filtration on a flat sheet cartridge (Sartorius, 100 kD MWCO) and then buffer exchanged by diafiltration into 50 mM Tris, 45 mM NaCl, 5% (w/v) sucrose, pH 7.5 (TSS). Alternatively, the final buffer exchange into TSS was completed with PD-10 desalting columns (GE). If required, formulations were concentrated by centrifugation with Amicon 100 kDa centrifugal filters (Millipore). The resulting mixture was then filtered using a 0.2 μm sterile filter. The final LNP was stored at 4° C. or −80° C. until further use.
(§3) Additional PCR was performed per the manufacturer's protocols (Illumina) to add chemistry for sequencing. The amplicons were sequenced on an Illumina MiSeq instrument. The reads were aligned to a reference genome (e.g., the human reference genome (hg38), the cynomologus reference genome (mf5), the rat reference genome (rn6), or the mouse reference genome (mm10)) after eliminating those having low quality scores. The resulting files containing the reads were mapped to the reference genome (BAM files), where reads that overlapped the target region of interest were selected and the number of wild type reads versus the number of reads which contain an insertion, substitution, or deletion was calculated.
(§4) The editing percentage (e.g., the “editing efficiency” or “percent editing” or “indel frequency”) is defined as the total number of sequence reads with insertions/deletions (“indels”) or substitutions over the total number of sequence reads, including wild type.
(§5) Lipid nanoparticle formulations of modified sgRNAs targeting human TTR and the cyno matched sgRNA sequences were tested on primary human hepatocytes and primary cyno hepatocytes in a dose response curve. Primary human and cyno hepatocytes were plated as described in Example 1. Both cell lines were incubated at 37° C., 5% CO2 for 24 hours prior to treatment with LNPs. The LNPs used in the experiments detailed in Tables 20-22 were prepared using the cross-flow procedure described above but purified using PD-10 columns (GE Healthcare Life Sciences) and concentrated using Amicon centrifugal filter units (Millipore Sigma), each containing the specified sgRNA and Cas9 mRNA (SEQ ID NO:1). […] LNPs were incubated in hepatocyte maintenance media containing 6% cyno serum at 37° C., 5% CO2 for 5 minutes. […]

TTR [2] = test: TTR editing dose response (EC50, maximum editing) in primary human hepatocytes treated with LNP formulated U-depleted Spy Cas9 mRNA and sgRNAs; assay type: cell-based
Experimental: as §1, §2, §3, §4, §5

TTR mRNA = TTR mRNA knockdown (quantitative PCR) in primary human hepatocytes treated with LNPs; assay type: cell-based; details: PHH; LNP dose 300 ng mRNA cargo; gRNA:mRNA 1:2; 96 h; biological triplicates; vs untreated control
Experimental: In one experiment, PHH were cultured and treated with LNPs comprising Cas9 mRNA (SEQ ID NO:1) and a gRNA of interest (See FIG. 29, Table 36), as described in Example 4. The LNPs were prepared using the cross-flow procedure described above and purified and concentrated using PD-10 columns and Amicon centrifugal filter units, respectively. The LNPs were formulated with an N:P ratio of 6.0 and contained Lipid A, Cholesterol, DSPC, and PEG2k-DMG in a 50:38:9:2 molar ratio, respectively. The LNPs comprised a gRNA:mRNA ratio of 1:2, and the cells were treated at a dose of 300 ng (with respect to the amount of mRNA cargo delivered).
(§6) Ninety-six (96) hours following LNP treatment (with biological triplicates for each condition), mRNA was purified from PHH cells using the Dynabeads mRNA DIRECT Kit (ThermoFisher Scientific) according to the manufacturer's protocol. Reverse Transcription (RT) was performed with Maxima reverse transcriptase (ThermoFisher Scientific) and a poly-dT primer. The resulting cDNA was purified with Ampure XP Beads (Agencourt). For Quantitative PCR, 2% of the purified cDNA was amplified with Taqman Fast Advanced Mastermix and 3 Taqman probe sets, TTR (Assay ID: Hs00174914_m1), GAPDH (Assay ID: Hs02786624_g1), and PPIB (Assay ID: Hs00168719_m1). The assays were run on the QuantStudio 7 Flex Real Time PCR System according to the manufacturer's instructions (Life Technologies). Relative expression of TTR mRNA was calculated by normalizing to the endogenous controls (GAPDH and PPIB) individually, and then averaged.
The groups in FIG. 29 and Table 36 are identified by the gRNA ID used in each LNP preparation.
In a separate experiment, TTR mRNA knockdown was evaluated following treatment with LNPs comprising G000480, G000486, and G000502. The LNPs were formulated and PHH were cultured and treated with the LNPs, each as described in the experiment above in this Example with the exception that the cells were treated at a dose of 100 ng (with respect to the amount of mRNA cargo delivered).
as §6, with “(single treatment” for “(with biological triplicates”, “the High Capacity cDNA Reverse Transcription Kit” for “Maxima reverse transcriptase”, “according to the manufacturer's instructions.” for “and a poly-dT primer. The resulting cDNA was purified with Ampure XP Beads (Agencourt).”, “the” for “the purified”
The groups in FIG. 30 and Table 37 are identified by the gRNA ID used in each LNP preparation.

[3] = test system: potential off-target genomic sites; test: Off-target analysis by oligo insertion based assay in primary human hepatocytes (sgRNAs); assay type: cell-based; details: 100 ng Cas9 mRNA, 25 nM sgRNA, 12.5 nM donor oligo, 48 h
Experimental: Off-target analysis of sgRNAs targeting TTR was performed in primary human hepatocytes (PHH) as described in Example 5, with the following modifications. PHH were plated at a density of 33,000 cells per well on collagen-coated 96-well plates as described in Example 1. Twenty-four hours post plating, cells were washed with media and transfected using Lipofectamine RNAiMAX (ThermoFisher, Cat. 13778150) as described in Example 1. Cells were transfected with a lipoplex containing 100 ng Cas9 mRNA, immediately followed by the addition of another lipoplex containing 25 nM of the sgRNA and 12.5 nM of the donor oligo (0.3 μL/well). Cells were lysed 48 hours post-transfection and gDNA was extracted and analyzed as further described in Example 5. The data is graphically represented in FIG. 20.
Fewer sites were detected in PHH for every guide tested as compared to the HekCas9 cell line, with no unique sites detected in PHH alone.

TTR [4] = test: TTR editing in primary human hepatocytes treated with LNP formulated Spy Cas9 mRNA (SEQ ID NO: 2) and sgRNAs, 12.5 ng mRNA; assay type: cell-based; details: LNP formulated Spy Cas9 mRNA (SEQ ID NO: 2) and sgRNA, 12.5 ng mRNA, 3.9 nM sgRNA, 72 hours
Experimental: as §1
In general, the lipid nanoparticle components were dissolved in 100% ethanol with the lipid component of various molar ratios. The RNA cargos were dissolved in 25 mM citrate, 100 mM NaCl, pH 5.0, resulting in a concentration of RNA cargo of approximately 0.45 mg/mL. The LNPs were formulated with a lipid amine to RNA phosphate (N:P) molar ratio of about 4.5 or about 6, with the ratio of mRNA to gRNA at 1:1 by weight.
The LNPs were formed by microfluidic mixing of the lipid and RNA solutions using a Precision Nanosystems NanoAssemblr™ Benchtop Instrument, according to the manufacturer's protocol. A 2:1 ratio of aqueous to organic solvent was maintained during mixing using differential flow rates. After mixing, the LNPs were collected, diluted in water (approximately 1:1 v/v), held for 1 hour at room temperature, and further diluted with water (approximately 1:1 v/v) before final buffer exchange. The final buffer exchange into 50 mM Tris, 45 mM NaCl, 5% (w/v) sucrose, pH 7.5 (TSS) was completed with PD-10 desalting columns (GE). If required, formulations were concentrated by centrifugation with Amicon 100 kDa centrifugal filters (Millipore). The resulting mixture was then filtered using a 0.2 μm sterile filter. The final LNP was stored at −80° C. until further use.
as §3, §4
Lipid nanoparticle formulations of modified sgRNAs targeting human TTR and the cyno matched sgRNA sequences were tested on primary human hepatocytes and primary cyno hepatocytes in a dose response curve. Primary human and cyno hepatocytes were plated as described in Example 1. Both cell lines were incubated at 37° C., 5% CO2 for 24 hours prior to treatment with LNPs. The LNPs used in the experiments detailed in Tables 18-21 were prepared using the Nanoassemblr™ procedure, each containing the specified sgRNA and Cas9 mRNA (SEQ ID NO:2), each having Lipid. […]

[5] = LNP formulated U-depleted Spy Cas9 mRNA and cyno specific sgRNAs
[6] = LNP formulated U-depleted Spy Cas9 mRNA and human specific sgRNAs
[7] = LNP with U-depleted Spy Cas9 mRNA and cyno specific sgRNA, 8 point 3-fold dose response starting at 300 ng mRNA, 72 hours

Row | Molecule | Max Editing (TTR [1]; [5]) [%] | Max Editing (TTR [1]; [6]) [%] | Max Editing (TTR [2]; [7]) [%] | Max Editing (TTR [2]; LNP formulated U-depleted Spy Cas9 mRNA and human specific sgRNAs, dose response) [%] | Avg % Knockdown (TTR mRNA) (TTR mRNA) [%] | # Sites in PHH (off-target integration sites detected) [3] | 12.5 ng mRNA, 3.9 nM sgRNA, Avg % Edit (TTR [4]) [%]
1 | G000504: TTR Cyno specific sgRNA modified sequence, SEQ ID NO: 116; guide sequence of CR005364 (nucleic acid) guide: mA*mA*mA*rGrGrCrUrGrCrUrGrArUrGrArGrArCrCrUrGrUrUrUrUrArGrAmGmCmUmAmGmAmAmAmUmAmGmCrArArGrUrUrArArArArUrArArGrGrCrUrArGrUrCrCrGrUrUrArUrCrAmAmCmUmUmGmAmAmAmAmAmGmUmGmGmCmAmCmCmGmAmGmUmCmGmGmUmGmCmU*mU*mU*mU | 98.04 | 7.16 | 7.16 |  |  |  | 
2 | G000571: TTR sgRNA modified sequence, Human, SEQ ID NO: 112; guide sequence of CR005301 (nucleic acid) guide: mG*mU*mC*rArCrArGrArArArCrArCrUrCrArCrCrGrUrGrUrUrUrUrArGrAmGmCmUmAmGmAmAmAmUmAmGmCrArArGrUrUrArArArArUrArArGrGrCrUrArGrUrCrCrGrUrUrArUrCrAmAmCmUmUmGmAmAmAmAmAmGmUmGmGmCmAmCmCmGmAmGmUmCmGmGmUmGmCmU*mU*mU*mU |  | 97.03 |  | 71.28 | 96.17 | 1 | 
3 | G000501: TTR sgRNA modified sequence, Human, SEQ ID NO: 108; guide sequence of CR005300 (nucleic acid) guide: mU*mC*mA*rCrArGrArArArCrArCrUrCrArCrCrGrUrArGrUrUrUrUrArGrAmGmCmUmAmGmAmAmAmUmAmGmCrArArGrUrUrArArArArUrArArGrGrCrUrArGrUrCrCrGrUrUrArUrCrAmAmCmUmUmGmAmAmAmAmAmGmUmGmGmCmAmCmCmGmAmGmUmCmGmGmUmGmCmU*mU*mU*mU |  |  |  |  |  | 0 | 32.30
4 | G000503: TTR Cyno specific sgRNA modified sequence, SEQ ID NO: 115; guide sequence of CR005372 (nucleic acid) guide: mA*mA*mA*rArGrGrCrUrGrCrUrGrArUrGrArGrArCrCrGrUrUrUrUrArGrAmGmCmUmAmGmAmAmAmUmAmGmCrArArGrUrUrArArArArUrArArGrGrCrUrArGrUrCrCrGrUrUrArUrCrAmAmCmUmUmGmAmAmAmAmAmGmUmGmGmCmAmCmCmGmAmGmUmCmGmGmUmGmCmU*mU*mU*mU | 83.41 |  |  |  |  |  | 
5 | G000505: TTR Cyno specific sgRNA modified sequence, SEQ ID NO: 117; guide sequence of CR005365 (nucleic acid) guide: mC*mA*mU*rUrGrArCrArGrCrArGrGrArCrUrGrCrCrUrGrUrUrUrUrArGrAmGmCmUmAmGmAmAmAmUmAmGmCrArArGrUrUrArArArArUrArArGrGrCrUrArGrUrCrCrGrUrUrArUrCrAmAmCmUmUmGmAmAmAmAmAmGmUmGmGmCmAmCmCmGmAmGmUmCmGmGmUmGmCmU*mU*mU*mU | 99.97 | 13.48 | 13.48 |  |  |  | 
